Source: PMC5803408 (Structure (London, England : 1993), 2018)
Changes are numbered by the printed parent chain. In names and notes the source's numbering stands. One block for each molecule: values may come before it.

Tests used:
[1] = molecular target: T1, human UHRF1 TTD domain (residues 126-284) N147A (human, UniProt Q96T88 126-284, N147A); assay: ITC
T1 sequence (looked up): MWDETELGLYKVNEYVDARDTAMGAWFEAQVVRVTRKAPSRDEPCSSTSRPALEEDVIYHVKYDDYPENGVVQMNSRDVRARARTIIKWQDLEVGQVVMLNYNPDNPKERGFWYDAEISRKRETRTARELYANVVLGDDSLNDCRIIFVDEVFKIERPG

[2] = molecular target: T2, human UHRF1 TTD domain (residues 126-284) N194A (human, UniProt Q96T88 126-284, N194A); assay: ITC
T2 sequence (looked up): T1 sequence (looked up) with A22N, N69A

[3] = molecular target: T3, human UHRF1 TTD-PHD dual domains (residues 126-366) (human, UniProt Q96T88 126-366); assay: ITC
T3 sequence (looked up): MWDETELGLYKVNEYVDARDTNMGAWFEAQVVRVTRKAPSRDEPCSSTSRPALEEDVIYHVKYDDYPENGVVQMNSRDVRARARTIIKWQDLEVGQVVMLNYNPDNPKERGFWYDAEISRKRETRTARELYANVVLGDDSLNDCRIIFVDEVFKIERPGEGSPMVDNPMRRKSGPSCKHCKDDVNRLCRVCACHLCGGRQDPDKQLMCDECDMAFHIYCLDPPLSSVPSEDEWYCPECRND

[4] = molecular target: T4, human UHRF1 TTD domain (residues 126-284) D142A/E153A (human, UniProt Q96T88 126-284, D142A | E153A); assay: cell-based or functional assay
T4 sequence (looked up): T1 sequence (looked up) with D17A, A22N, E28A

chromatin = conditions: previous study; ref Zhang et al., 2015; cited from earlier work

- binding result [1]: binds
- binding result [2]: binds
- fold weaker binding than to TTD [3]: ~3 fold
- FRET ratio of the CFP-UHRF1 (D142A/E153A)-YFP mutant, intramolecular [4]: 0.52
Molecule: EGGFASPRTGKGKWKRKSAGGGPSRAGSPRRT (peptide, UniProt Q96T88 634-665, looked up) [human UHRF1 PBR peptide (residues 634-665)]

B1: K644E/K646E: UHRF1 with K644E/K646E mutations in the PBR sequence (previous study) (protein, UniProt Q96T88 1-793, looked up, variant K644E K646E)
E3 ubiquitin-protein ligase …: MWIQVRTMDGRQTHTVDSLSRLTKVEELRRKIQELFHVEPGLQRLFYRGKQMEDGHTLFDYEVRLNDTIQLLVRQSLVLPHSTKERDSELSDTDSGCCLGQSESDKSSTHGEAAAETDSRPADEDMWDETELGLYKVNEYVDARDTNMGAWFEAQVVRVTRKAPSRDEPCSSTSRPALEEDVIYHVKYDDYPENGVVQMNSRDVRARARTIIKWQDLEVGQVVMLNYNPDNPKERGFWYDAEISRKRETRTARELYANVVLGDDSLNDCRIIFVDEVFKIERPGEGSPMVDNPMRRKSGPSCKHCKDDVNRLCRVCACHLCGGRQDPDKQLMCDECDMAFHIYCLDPPLSSVPSEDEWYCPECRNDASEVVLAGERLRESKKKAKMASATSSSQRDWGKGMACVGRTKECTIVPSNHYGPIPGIPVGTMWRFRVQVSESGVHRPHVAGIHGRSNDGAYSLVLAGGYEDDVDHGNFFTYTGSGGRDLSGNKRTAEQSCDQKLTNTNRALALNCFAPINDQEGAEAKDWRSGKPVRVVRNVKGGKNSKYAPAEGNRYDGIYKVVKYWPEKGKSGFLVWRYLLRRDDDEPGPWTKEGKDRIKKLGLTMQYPEGYLEALANREREKENSKREEEEQQEGGFASPRTGEGEWKRKSAGGGPSRAGSPRRTSKKTKVEPYSLTAQQSSLIREDKSNAKLWNEVLASLKDRPASGSPFQLFLSKVEETFQCICCQELVFRPITTVCQHNVCKDCLDRSFRAQVFSCPACRYDLGRSYAMQVNQPLQTVLNQLFPGYGNGR
- chromatin binding of UHRF1 with K644E/K646E mutations in PBR (chromatin): reduced chromatin binding of UHRF1
